The values that follow come from the supplement of paper PMC12764529.

Data set [1] is described as follows: folding stability dG unfold from chymotrypsin proteolysis; higher = more stable. In short, it runs like this:
(§1)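 How resistant each design was to proteolysis was captured as K50, inferred by Bayesian fitting of sequencing counts. Unfolding free energy was then derived relative to a sequence-predicted unfolded-state K50 and a shared folded-state K50, per protease or combined. Digestion used trypsin and chymotrypsin at 11 threefold-diluted concentrations plus a no-protease condition, on mini-proteins under 80 residues without cysteine in a PA-tagged cDNA display construct. Designs were kept only when AlphaFold2 dimer inter-PAE was above 15.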

Data set [2] can be described thus: folding stability dG unfold (combined trypsin and chymotrypsin); higher = more stable. In outline:
as §1

Data set [3] can be described thus: folding stability dG unfold from trypsin proteolysis; higher = more stable. In short, it runs like this: as §1

± gives the half width of the 95% confidence interval.

“SAGGSAGGSAGPVLKIKVEVKLEKKYDKNGKLVEEKLEVKVEIELLEPAPPASDEELKKKSAGGSAGGSAGG [r11_131_TrROS_Hall]”: the “folding stability dG unfold” value in data set [1] came to 1.69 ± 0.2 kcal/mol; in data set [2] it was 1.6 ± 0.39 kcal/mol; in data set [3] it was 0.29 ± 0.24 kcal/mol.

In the case of “SAGGSAGGSAGPVRTIEILFPFDPGESLEFEIRIPGNGRKIKVSIEPYPNGWMRIKITVYSAGGSAGGSAGG [r17_131_TrROS]”, the “folding stability dG unfold” value in data set [1] is 5.68 ± 0.26 kcal/mol; in data set [2], 5.69 ± 0.21 kcal/mol; in data set [3] it was 4.75 ± 0.21 kcal/mol.

In the case of “SAGGSAGGSAGPWVWIIMIHMEIERVTVEVRPDPDGKWEYKLEITIKIEIHIIPLPPGATSAGGSAGGSAGG [r11_24_TrROS]”, the “folding stability dG unfold” value in data set [1] was 5.37 ± 0.11 kcal/mol; in data set [2], 5.26 ± 0.17 kcal/mol; in data set [3], 3.55 ± 0.15 kcal/mol.

Turning to “SAGGSAGGSAGPYKVKVTLKNGEVLEFTIPEEFKDLKEVKIDLPEELKENIVKVEIEPLESAGGSAGGSAGG [r17_528_TrMRF]”, the entries for the “folding stability dG unfold” value in data set [1], in data set [2] and in data set [3] were 3.199 ± 0.02 kcal/mol, 2.95 ± 0.059 kcal/mol and 2.56 ± 0.1 kcal/mol, respectively.

“SAGGSAGGSAGQTLLVEVNGQLAEITIDPDVPGQITITLPNGEQITLEVRLEPPPPPEEESAGGSAGGSAGG [r17_85_TrROS_Hall]”: the “folding stability dG unfold” value in data set [1] worked out at 1.39 ± 0.17 kcal/mol; in data set [2], 1.6 ± 0.16 kcal/mol; in data set [3], 2.08 ± 0.3 kcal/mol.

Consider “SAGGSAGGSAGREIADEIKDILQEKGFEIKDIEVTRPPNGYPMVEITVRHDNGKKWTIWISAGGSAGGSAGG [r11_780_TrROS]”, for which the “folding stability dG unfold” value amounted to 1.91 ± 0.095 kcal/mol in data set [1], 1.76 ± 0.099 kcal/mol in data set [2] and 1.5 ± 0.038 kcal/mol in data set [3].

On to “SAGGSAGGSAGRLLLEGLGADEVLRLEPEPDRVPIVVRHRDGGRDVVIEMDFEEAVRAILSAGGSAGGSAGG [r11_630_TrMRF]”, for which the figures for the “folding stability dG unfold” value in data set [1], in data set [2] and in data set [3] were -0.538 ± 0.28 kcal/mol, -0.771 ± 0.42 kcal/mol and -1.22 ± 0.67 kcal/mol, respectively.

Consider “SAGGSAGGSAGRVEKIVSNLKPLGYEVLSVEETEDYVLAVVYDPFTDEPRVFRFPKDSPFSAGGSAGGSAGG [r11_428_TrMRF]”, for which the “folding stability dG unfold” value worked out at 1.18 ± 0.13 kcal/mol in data set [1], 1.41 ± 0.11 kcal/mol in data set [2] and 1.27 ± 0.017 kcal/mol in data set [3].

“SAGGSAGGSAGRVVKITLPDGSSLDIDVPADDDLTKEEIEARLTVPPGEKVSIKSIEILEESAGGSAGGSAG [r3_465_JUSTAS]”: the “folding stability dG unfold” value in data set [1] was 0.899 ± 0.033 kcal/mol; in data set [2] it was 0.628 ± 0.085 kcal/mol; in data set [3], 0.0468 ± 0.037 kcal/mol.

Turning to “SAGGSAGGSAGSETYYIKIGDKLYTVTVEPDSITVKYPETSEEKTFSSSLPGISLEEILSSAGGSAGGSAGG [r11_648_JUSTAS]”, the “folding stability dG unfold” value in data set [1] was determined as 1.68 ± 0.054 kcal/mol; in data set [2] it was 1.71 ± 0.065 kcal/mol; in data set [3], 1.63 ± 0.041 kcal/mol.

For “SAGGSAGGSAGSFLIVVRFPNSTVLFDAPEDTDVDALKKAIKKLFNADIEVEVVPKEKPLSAGGSAGGSAGG [r11_805_TrMRF]”, the “folding stability dG unfold” value in data set [1] stood at 1.55 ± 0.051 kcal/mol; in data set [2] it was 1.79 ± 0.093 kcal/mol; in data set [3], 1.75 ± 0.058 kcal/mol.

Turning to “SAGGSAGGSAGSFTVLVTEVLDPDDPLYLKLQKELGLPPENIVRFKLYTFSSPEEVKKKISAGGSAGGSAGG [r11_83_TrMRF]”, the “folding stability dG unfold” value in data set [1] stood at 1.99 ± 0.13 kcal/mol; in data set [2], 1.5 ± 0.065 kcal/mol; in data set [3] it was 0.923 ± 0.035 kcal/mol.

In the case of “SAGGSAGGSAGSISRTATPDGYLYTFTDSSGKTHTIPSPVPGMPLSEVAERARAAGFSTVESSAGGSAGGSA [r18_83_JUSTAS]”, the “folding stability dG unfold” value in data set [1] is 0.968 ± 0.065 kcal/mol; in data set [2], 0.618 ± 0.08 kcal/mol; in data set [3], -0.188 ± 0.12 kcal/mol.

With “SAGGSAGGSAGSKKAVIGGDGATVTYYPPLGYALVTFPDGTAALVDLKTGEIVEIAKTNDSAGGSAGGSAGG [r11_149_TrMRF]”, the “folding stability dG unfold” value was determined as 2.29 ± 0.037 kcal/mol in data set [1], 2 ± 0.11 kcal/mol in data set [2] and 1.04 ± 0.059 kcal/mol in data set [3].

Regarding “SAGGSAGGSAGSLTLVSTSSDETEEPVVRYREVYAGPVPVRVTAEESLENPGNPRLRVVLSAGGSAGGSAGG [r11_618_JUSTAS]”, the “folding stability dG unfold” value in data set [1] is -0.275 ± 0.39 kcal/mol; in data set [2] it was -0.251 ± 0.14 kcal/mol; in data set [3] it was -0.53 ± 0.22 kcal/mol.

For the sequence “SAGGSAGGSAGSMEEALAAELRARGGVAVEIERIHVPSELAPGTKLPADEVLIRVTARPAASAGGSAGGSAG [r3_229_JUSTAS]”, the “folding stability dG unfold” value was 0.683 ± 0.12 kcal/mol in data set [1], 0.525 ± 0.17 kcal/mol in data set [2] and -0.139 ± 0.46 kcal/mol in data set [3].

Turning to “SAGGSAGGSAGSMKTLVTTETSTVPGTTTTVTTTTTTTYDPTSSETTTTTTPVTNPAPAASAGGSAGGSAGG [r17_309_JUSTAS]”, the “folding stability dG unfold” value in data set [1] is 1.05 ± 0.02 kcal/mol; in data set [2], 0.711 ± 0.071 kcal/mol; in data set [3], -0.827 ± 0.28 kcal/mol.

As to “SAGGSAGGSAGSMQTEVTFERGPGRLTTTTTTKFPDNRWSTTTSTSPVPARPPLPPAPVLLSAGGSAGGSAG [r3_68_JUSTAS]”, the “folding stability dG unfold” value in data set [1] is -0.709 ± 0.94 kcal/mol; in data set [2], -0.416 ± 0.22 kcal/mol; in data set [3], -0.817 ± 0.52 kcal/mol.
